Reference: PMC11260479, “YY1 is involved in homologous recombination inhibition at guanine quadruplex sites in human cells”

Target: RAD51 (UniProt Q06609 1-339)
Assay: EMSA; 2 mM ATP, 5 mM CaCl2; EMSA, 10 nM DNA. RAD51: 20 mM Tris-HCl pH 8.0, 30 mM NaCl, 1 mM DTT, 2 mM ATP, 5 mM CaCl2, 0.2% Tween 20, 37 C 15 min. BG4: 20 mM Tris-HCl pH 8.0, 30 mM KCl, 1
Settings: protein: commercial; chain copies: 10; label: none (SYBR Gold stain); single strand

RAD51, sequence (Q06609 whole entry): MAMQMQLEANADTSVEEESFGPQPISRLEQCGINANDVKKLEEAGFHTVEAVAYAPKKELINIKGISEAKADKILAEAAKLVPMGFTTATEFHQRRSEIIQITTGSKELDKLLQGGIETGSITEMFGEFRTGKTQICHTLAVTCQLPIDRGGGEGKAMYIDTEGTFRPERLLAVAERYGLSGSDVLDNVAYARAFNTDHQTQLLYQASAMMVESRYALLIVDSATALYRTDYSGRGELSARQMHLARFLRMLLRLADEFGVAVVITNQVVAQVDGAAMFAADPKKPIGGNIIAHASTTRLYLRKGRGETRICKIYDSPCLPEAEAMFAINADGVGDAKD

B1: ss-DNA (ssDNA)
DNA: ATGGTGTGTGTAGGTTAATGTGAGGAGGAGAGGTGAAGAAGGAGGAGAGAAGAAGGAGGC
  binding result: binds
